Laboratory results published in paper PMC10397247.

How the values were obtained:
P8mS = biological target: T1, P8mS; assay: two-hybrid library CC1; conditions: mean of both orientations;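 further: natural log of median RNA to DNA barcode read ratio; higher means stronger binding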
T1 chain: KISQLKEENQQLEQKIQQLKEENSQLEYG

P9 = biological target: T2, P9; assay: two-hybrid library CC1; conditions: mean of both orientations;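 further: natural log of median RNA to DNA barcode read ratio; higher means stronger binding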
T2 chain: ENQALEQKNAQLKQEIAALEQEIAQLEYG

P8 = biological target: T3, P8; assay: two-hybrid library CC1;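 further: natural log of median RNA to DNA barcode read ratio; higher means stronger binding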
T3 chain: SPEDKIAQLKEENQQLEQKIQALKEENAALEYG

4H56-bH = biological target: T4, 4H56-bH; assay: two-hybrid library CCNG1;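 further: natural log of median RNA to DNA barcode read ratio; higher means stronger binding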
T4 chain: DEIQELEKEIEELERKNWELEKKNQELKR

4H796-bH = biological target: T5, 4H796-bH; assay: two-hybrid library CCNG1
T5 chain: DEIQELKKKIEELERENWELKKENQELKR

4H349-bH = biological target: T6, 4H349-bH; assay: two-hybrid library CCNG1
T6 chain: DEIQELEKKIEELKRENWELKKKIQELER

4H932-bH = biological target: T7, 4H932-bH; assay: two-hybrid library CCNG1
T7 chain: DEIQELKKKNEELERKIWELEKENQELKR

4H949-bH = biological target: T8, 4H949-bH; assay: two-hybrid library CCNG1
T8 chain: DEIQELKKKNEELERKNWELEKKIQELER

4H3381-bH = biological target: T9, 4H3381-bH; assay: two-hybrid library CCNG1
T9 chain: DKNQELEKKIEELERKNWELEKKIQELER

4H730-bH = biological target: T10, 4H730-bH; assay: two-hybrid library CCNG1
T10 chain: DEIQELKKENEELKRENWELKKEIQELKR

APC9096-AA = biological target: T11, APC9096-AA; assay: two-hybrid library CCmax; conditions: mean of both orientations
T11 chain: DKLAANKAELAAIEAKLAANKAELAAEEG

APC8191-AA = biological target: T12, APC8191-AA; assay: two-hybrid library CCmax
T12 chain: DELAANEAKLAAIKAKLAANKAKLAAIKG

APC7099-AA = biological target: T13, APC7099-AA; assay: two-hybrid library CCmax; conditions: mean of both orientations
T13 chain: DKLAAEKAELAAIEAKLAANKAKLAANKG

APC4436-AA = biological target: T14, APC4436-AA; assay: two-hybrid library CCmax; conditions: mean of both orientations
T14 chain: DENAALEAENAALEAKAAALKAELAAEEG

APC6108-AA = biological target: T15, APC6108-AA; assay: two-hybrid library CCmax; conditions: mean of both orientations
T15 chain: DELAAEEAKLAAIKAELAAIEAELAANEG

APC5383-AA = biological target: T16, APC5383-AA; assay: two-hybrid library CCmax; conditions: mean of both orientations
T16 chain: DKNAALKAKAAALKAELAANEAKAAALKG

APC9319-AA = biological target: T17, APC9319-AA; assay: two-hybrid library CCmax; conditions: mean of both orientations
T17 chain: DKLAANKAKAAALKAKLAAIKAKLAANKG

APC8910-AA = biological target: T18, APC8910-AA; assay: two-hybrid library CCmax; conditions: mean of both orientations
T18 chain: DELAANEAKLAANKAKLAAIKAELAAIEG

APC4264-AA = biological target: T19, APC4264-AA; assay: two-hybrid library CCmax
T19 chain: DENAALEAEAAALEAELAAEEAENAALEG

APC6088-AA = biological target: T20, APC6088-AA; assay: two-hybrid library CCmax; conditions: mean of both orientations
T20 chain: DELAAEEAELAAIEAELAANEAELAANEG

APC4336-AA = biological target: T21, APC4336-AA; assay: two-hybrid library CCmax; conditions: mean of both orientations
T21 chain: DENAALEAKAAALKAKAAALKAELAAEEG

APC9182-AA = biological target: T22, APC9182-AA; assay: two-hybrid library CCmax; conditions: mean of both orientations
T22 chain: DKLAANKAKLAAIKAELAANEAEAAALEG

APC7524-AA = biological target: T23, APC7524-AA; assay: two-hybrid library CCmax; conditions: mean of both orientations
T23 chain: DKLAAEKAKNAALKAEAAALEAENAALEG

APC5009-AA = biological target: T24, APC5009-AA; assay: two-hybrid library CCmax; conditions: mean of both orientations
T24 chain: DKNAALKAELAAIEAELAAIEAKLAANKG

APC9141-AA = biological target: T25, APC9141-AA; assay: two-hybrid library CCmax; conditions: mean of both orientations
T25 chain: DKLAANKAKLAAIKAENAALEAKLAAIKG

APC9291-AA = biological target: T26, APC9291-AA; assay: two-hybrid library CCmax; conditions: mean of both orientations
T26 chain: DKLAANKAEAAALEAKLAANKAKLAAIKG

APC8401-AA = biological target: T27, APC8401-AA; assay: two-hybrid library CCmax; conditions: mean of both orientations
T27 chain: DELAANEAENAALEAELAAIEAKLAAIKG

APC8516-AA = biological target: T28, APC8516-AA; assay: two-hybrid library CCmax; conditions: mean of both orientations
T28 chain: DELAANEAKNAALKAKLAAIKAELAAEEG

APC9806-AA = biological target: T29, APC9806-AA; assay: two-hybrid library CCmax; conditions: mean of both orientations
T29 chain: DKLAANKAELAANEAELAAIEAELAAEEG

APC4100-AA = biological target: T30, APC4100-AA; assay: two-hybrid library CCmax
T30 chain: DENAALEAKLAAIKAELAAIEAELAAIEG

APC542-AA = biological target: T31, APC542-AA; assay: two-hybrid library CCmax; conditions: mean of both orientations
T31 chain: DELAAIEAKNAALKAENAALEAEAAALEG

APC5531-AA = biological target: T32, APC5531-AA; assay: two-hybrid library CCmax; conditions: mean of both orientations
T32 chain: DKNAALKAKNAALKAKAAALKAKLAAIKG

B1: P8 (peptide)
chain: T3 chain
**Q.** Which interaction score (P8mS) does the source give for B1 here?
**A.** Its interaction score is -2.75.

**Q.** What about the interaction score (P9) of the same binder?
**A.** Its interaction score is -1.88.

**Q.** And the interaction score (P8)?
**A.** The interaction score was -2.5.

B2: 4H3381-bH (peptide)
chain: DKNQELEKKIEELERKNWELEKKIQELER
**Q.** What does the source list for B2?
**A.** interaction score (4H56-bH): -1.78; interaction score (4H796-bH): -1.28; interaction score (4H349-bH): -1.42; interaction score (4H932-bH): -0.263; interaction score (4H949-bH): 0.43; interaction score (4H3381-bH): 1.27; interaction score (4H730-bH): -1.42

B3: APC4264-AA (peptide)
chain: DENAALEAEAAALEAELAAEEAENAALEG
**Q.** For B3, which interaction score (APC9096-AA) is on record?
**A.** Its interaction score is -1.45.

**Q.** What about the interaction score (APC8191-AA) of the same binder?
**A.** Its interaction score is -1.56.

**Q.** What about the interaction score (APC7099-AA) of the same binder?
**A.** Its interaction score is -1.96.

**Q.** And the interaction score (APC4436-AA)?
**A.** The interaction score was -2.34.

**Q.** What about the interaction score (APC6108-AA) of the same binder?
**A.** The interaction score was -1.5.

**Q.** What about the interaction score (APC5383-AA) of the same binder?
**A.** Its interaction score is -1.3.

**Q.** What about the interaction score (APC9319-AA) of the same binder?
**A.** The interaction score was -1.52.

**Q.** What about the interaction score (APC8910-AA) of the same binder?
**A.** The interaction score was -1.81.

**Q.** What about the interaction score (APC4264-AA) of the same binder?
**A.** The interaction score was -1.24.

B4: APC4100-AA (peptide)
chain: DENAALEAKLAAIKAELAAIEAELAAIEG
**Q.** Which results are given for B4?
**A.** interaction score (APC6088-AA): -1.46; interaction score (APC4336-AA): -0.916; interaction score (APC9182-AA): -1.63; interaction score (APC7524-AA): -1.84; interaction score (APC5009-AA): 0.706; interaction score (APC9141-AA): -1.35; interaction score (APC9291-AA): -1.29; interaction score (APC8401-AA): -1.35; interaction score (APC8516-AA): -1.71; interaction score (APC9806-AA): -1.87; interaction score (APC4100-AA): 0.507; interaction score (APC542-AA): -1.56; interaction score (APC5531-AA): -0.557
